Data: EP4703384A1

What was measured:
[1] = target: CHO-K1-hGPRC5D^hi cells, CHO-K1-cynoGPRC5D cells, and/or CHO-K1-murineGPRC5D cells; assay: cell ELISA (OD450), subclone supernatant on fixed transfected CHO-K1 cells against CHO-K1
[2] = target: human GPRC5D protein (human) (UniProt Q9NZD1); assay: FACS, hybridoma subclone supernatant on NCI-H929 cells
Sequence of human GPRC5D protein (human) (Q9NZD1 whole entry): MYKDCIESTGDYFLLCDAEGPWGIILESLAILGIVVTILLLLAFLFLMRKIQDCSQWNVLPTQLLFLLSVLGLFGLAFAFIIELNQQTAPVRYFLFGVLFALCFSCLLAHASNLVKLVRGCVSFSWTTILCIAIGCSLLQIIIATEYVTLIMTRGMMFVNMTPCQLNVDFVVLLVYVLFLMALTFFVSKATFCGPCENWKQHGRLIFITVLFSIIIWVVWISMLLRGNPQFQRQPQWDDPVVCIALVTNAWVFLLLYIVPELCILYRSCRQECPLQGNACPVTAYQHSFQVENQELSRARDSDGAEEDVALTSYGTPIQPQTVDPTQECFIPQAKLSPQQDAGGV

B1: mu-169 (antibody, V domains shown)
VH: EVKLVESGGGLVKPGASLKLSCAASGFTFSNYGMSWVRQTSDKRLEWVASISSGGGRIYYPDNVKGRFTISRENAKNTLYLQMSSLKSEDTALYYCTRHAMDNWGQGTSVIVSS
VL: QIVLTQSPAIMSASPGEKVTMTCSASSSVSNMYWYQQKSGTSPKRWIYDTSKLASGVPARFSGSGSGTSYSLTISSMEAEDASTYYCQQWSSNPLTFGAGTTLELK
fold difference in absorbance as compared to the control cell CHO-K1 [1]: > 2 fold | MFI [2]: 59300 MFI

B2: mu-128 (antibody, V domains shown)
VH: DVQLVESGGGLVQPGGSRKVSCAASGFTFSSFGMHWVRQAPEKGLEWVAYISRGSSTIYYADTVKGRFTISRDNPKNTLFLQMTSLRSEDTAMYYCARSGYGSSSYYFDYWGQGTTLTVSS
VL: ENVLTQSPAIMSASPREKVTMTCRASSSIRSSYLHWYQQKSGASPKLWIYSTSNLASGVPARFSGSGSGTSYSLTISSVEAEDAATYYCQQFSGYPLTFGGGTKLEIK
fold difference in absorbance as compared to the control cell CHO-K1 [1]: > 2 fold | MFI [2]: 15700 MFI

B3: mu-89 (antibody, V domains shown)
VH: EVQLVESGGDLVKPGGSLKLSCAASGFTFSSYGMSWVRQTPDKRLEWVATISSGGSYTYYPDSVKGRFTFSRDNAKNTLYLQMSSLKSEDTAMYYCVRQALRYHMDSWGQGTSVTVSS
VL: DIVMTQSQKFMSTSVGDRVSVTCKASQNVGTNVAWYQQKPGQSPKALIYSASYRYSGVPDRFTGSGSGTDFTLTISNVQSEDLADFFCQQYYSYPWTFGGGTKLEIK
fold difference in absorbance as compared to the control cell CHO-K1 [1]: > 2 fold | MFI [2]: 11900 MFI

B4: mu-105 (antibody, V domains shown)
VH: EVQLQQSGPELVKPGASVKMSCKASGYTFTDYYMNWVKQSHGKSLEWIGYIYPNNGGTGYNQRFKGKATLTADKSSSTAYMELRSLTSEDSAVYYCARWGGTRLGYYAMDYWGQGTSVTVSS
VL: DIVMTQSQKFMSTSVGDRVSVTCKASQNVGTNVVWYQQKPGQSPKLLIYWASTRHTGVPDRFTGSGSGTDFTLTISNVQSEDLADYFCQQYSRYPYTFGGGTKLEIK
fold difference in absorbance as compared to the control cell CHO-K1 [1]: > 2 fold | MFI [2]: 13200 MFI

B5: mu-131 (antibody, V domains shown)
VH: EVQLQQSGPELVKPGASVKMSCKASGYTFTNYVMHWVKQKPGQGLEWIGYFNPYNDGTNYNEKFKGKATLTSDKSSNTAYMELSSLTSEDSAVYYCARGGVRRYFDVWGAGTTVTVSS
VL: DIQMTQSPSSLSASLGERVSLTCRASQDIGSNLNWLQLGPDGTIKRLIYATFSLDSGVPKRFSGSRSGSDYSLTISSLESEDFVDYYCQQYANFPPTFGGGTKLEIK
fold difference in absorbance as compared to the control cell CHO-K1 [1]: > 2 fold | MFI [2]: 12800 MFI
